Numbering of substitutions follows the chain as printed.
How the values were obtained:
[1] = target: T1, synthetic PAR1 peptide (TR33-62) (Homo sapiens, UniProt P25116); assay: Cleavage of synthetic PAR1 peptide TR33-62 by APC or thrombin, reverse phase HPLC and MALDI-TOF; type: biochemical; settings: APC 500 nM or thrombin 5 nM, TR33-62 100 μM, HBS pH 7.4
T1 construct: purchased Biosynthesis; host or cells: chemical synthesis
T1 sequence (P25116 33-62 limits assumed): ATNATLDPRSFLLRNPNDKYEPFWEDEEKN
Description: Samples were subjected to reverse phase HPLC on a C18 column while the eluent was monitored at 214 nm during a 0%-67% gradient of acetonitrile in water containing 0.1% trifluoroacetic acid. Peptide fragments were collected and subjected to MALDI-TOF (Scripps mass spectrometry core facility) analysis.

[2] = target: T2, SEAP-PAR1 (Homo sapiens, UniProt P25116); assay: SEAP-PAR1 cleavage reporter on transfected HEK-293 cells (SEAP release); type: cell-based; settings: cells containing wild-type EPCR
T2 construct: we created a full-length PAR-1 construct linked at the N-terminus to an alkaline phosphatase reporter group (SEAP); expressed in transfected cells
T2 sequence (P25116 22-425): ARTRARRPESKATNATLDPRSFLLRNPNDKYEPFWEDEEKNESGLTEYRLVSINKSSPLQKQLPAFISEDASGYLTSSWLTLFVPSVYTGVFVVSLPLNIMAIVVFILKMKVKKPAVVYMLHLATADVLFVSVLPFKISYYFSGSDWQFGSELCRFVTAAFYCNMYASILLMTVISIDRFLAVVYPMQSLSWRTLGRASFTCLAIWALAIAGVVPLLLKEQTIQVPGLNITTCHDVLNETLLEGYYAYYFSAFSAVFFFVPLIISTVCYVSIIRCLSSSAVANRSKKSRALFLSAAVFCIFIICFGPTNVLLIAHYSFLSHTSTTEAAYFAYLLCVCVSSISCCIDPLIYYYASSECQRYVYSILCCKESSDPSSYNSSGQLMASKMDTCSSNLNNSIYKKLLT
Description: (§1) To facilitate analysis of APC-mediated PAR-1 activation, we created a full-length PAR-1 construct linked at the N-terminus to an alkaline phosphatase reporter group (SEAP). Selection of stable cell lines expressing both endothelial protein C receptor (EPCR) (wt or E86A) and SEAP-PAR1 allowed for a reliable and reproducible analysis of EPCR-dependent PAR-1 activation by APC. Mass-spec analysis of cleavage fragments generated by APC of a synthetic PAR-1 N-terminal tail peptide (TR33-62) identified both Arg^41 and Arg^46 as potential cleavage sites for APC proteolysis, as noted above. […] R41Q-SEAP-PAR1 was cleaved by APC in the presence of EPCR. This surprising result was also obtained for R41A-SEAP PAR1.
(§2) 2009; 113:5970-5978. SEAP-PAR1, either in the presence or absence of wt-EPCR, were transfected into HEK-293 cells to obtain stable cells expressing SEAP-PAR1 or wt-EPCR/SEAP-PAR1. Mutations in SEAP-PAR1 were introduced using the Quickchange method (Agilent). Cells were grown in 96-wells plates to confluency in Dulbeco's modified Eagle media (DMEM): Ham's F-12 (Invitrogen) supplemented with penicillin-streptomycin-glutamine (PSG) (Gibco) and 10% fetal bovine serum (Omega) in a humidified atmosphere at 37° C. and 5% CO2 Cells were washed with Hank's balanced salt solution (HBSS; Invitrogen) supplemented with 1.3 mM CaCl2, 0.6 mM MgCl2 and 0.1% endotoxin free BSA (Calbiochem) and incubated with APC. After 60 min, SEAP release was determined using 1-step PNPP (Pierce). Values were corrected for background activity derived from the same cells incubated in the absence of APC and expressed as a percentage of total SEAP available on the cell membrane.

[3] = target: T3, SEAP-PAR1 (Homo sapiens, UniProt P25116, R46Q); assay: as above; type: cell-based; settings: cells with wt-EPCR
T3 construct: we created a full-length PAR-1 construct linked at the N-terminus to an alkaline phosphatase reporter group (SEAP); expressed in transfected cells
T3 sequence (P25116 22-425 R46Q): T2 sequence (P25116 22-425) with R25Q
Description: as §1, §2

[4] = target: T4, endogenous PAR1 on EA.hy.926 endothelial cells (Homo sapiens, UniProt P25116); assay: On cell Western (OCW) immunoassay of PAR1 cleavage on EA.hy.926 endothelial cells; type: cell-based; settings: 1 hr at 4° C., 0.5 nM thrombin or 25 nM APC
T4 construct: untransfected EA.hy.926 endothelial cells expressing endogenous EPCR and PAR1; host or cells: EA.hy.926 endothelial cells
T4 sequence (P25116 22-425): T2 sequence (P25116 22-425)
Method: Subsequently, these antibodies were used in an on cell Western (OCW) immunoassay on EA.hy.926 endothelial cells to determine whether APC cleaves PAR1 at Arg^46 in the presence of endogenous PAR1 and EPCR expression. […] Incubations were performed at 4° C. to minimize receptor recycling and internalization. After fixation and staining, antibody signals were normalized for total cell number using the cell permeable nuclear dye Draq5 and antibody signals for the goat anti-PAR1 antibodies (Ab87 and Origene) and ATAP2 were expressed as a fraction of the signal obtained for WEDE15 reflecting the total PAR1 present on the cell surface.
Detailed methods and steps used for the study shown in FIG. 5 are as follows: EA.hy.926 cells (ATCC: CRL-2922) were grown in black clear bottom 96 well plates (Nunc) in DMEM (Invitrogen #12430) supplemented with glutamax (Invitrogen #35050) and 10% FBS (Hyclone #35-011-CV) in a 37° C. cell incubator with a humidified atmosphere and 5% CO2 in air until confluency. […] After final washing with PBS/0.1% Tween, IR fluorescence of bound antibodies was determined using the Odyssey (Licor). Background fluorescence was determined by omitting the primary antibody and subtracting background values from all observed values.

cleavage of wt-PAR1 (SEAP-PAR1) [2] | cleavage of R46Q-SEAP-PAR1 [3] | decrease of ATAP2 signal compared to WEDE15 [4] | Substance | cleavage sites in TR33-62 peptide [1]
cleaved | did not eliminate PAR1 cleavage | 50% | APC: Activated Protein C, serine protease with anticoagulant and cytoprotective cell signaling activities | cleaves this PAR1 peptide at Arg^46 as well as at Arg^41
cleaved | efficient cleavage | not significantly different | thrombin | cleavage at Arg^41

Reference: US10273279B2, “Protease activated receptor-1 (PAR1) derived cytoprotective polypeptides and related methods” (THE SCRIPPS RESEARCH INSTITUTE, priority 2011, dated 2019)
